Results taken from US20240228660A1 (IP2IPO INNOVATIONS, published 2024).
Substitutions are numbered along the chain they refer to.

B1: 4-H3_H6_L0 (antibody, human IgG1, kappa)
heavy: not shown
light: DIQMTQSPSSLSASVGDRVTITCLASEDIASGISWYQQKPGKAPKLLIYGASNLESGVPSRFSGSGSGTDFTLTISSLQPEDFATYYCLGGYSFSSNGLTFGGGTKVEIKTVAAPSVFIFPPSDEQLKSGTASVVCLLNNFYPREAKVQWKVDNALQSGNSQESVTEQDSKDSTYSLSSTLTLSKADYEKHKVYACEVTHQGLSSPVTKSFNRGEC
notes: humanised, human IgG1 kappa
B2: 4-H3_H6_L1 (antibody, human IgG1, kappa)
heavy: not shown
light: B1 light with I2Y, F71Y
notes: humanised, human IgG1 kappa
B3: 4-H3_H1_L0 (antibody, human IgG1, kappa)
heavy: not shown
light: B1 light
notes: humanised, human IgG1 kappa
B4: 4-H3_H0_L0 (antibody, human IgG1, kappa, V domains shown)
VH: QVQLVESGGGVVQPGRSLRLSCAASGFTFSSNAMNWVRQAPGKGLEWVAGIYGHDTSYYAAWAKGRFTISRDNSKNTLYLQMNSLRAEDTAVYYCARGFIYFDIWGQGTLVTVSS
VL: DIQMTQSPSSLSASVGDRVTITCLASEDIASGISWYQQKPGKAPKLLIYGASNLESGVPSRFSGSGSGTDFTLTISSLQPEDFATYYCLGGYSFSSNGLTFGGGTKVEIKT
notes: humanised, human IgG1 kappa
B5: 4-H3_H0_L1 rep (antibody, human IgG1, kappa, V domains shown)
VH: B4 VH
VL: B4 VL with I2Y, F71Y
notes: humanised, human IgG1 kappa
B6: 4-H3_H1_L1 (antibody, human IgG1, kappa)
heavy: not shown
light: B1 light with I2Y, F71Y
notes: humanised, human IgG1 kappa
B7: 4-H3_H3_L0 (antibody, human IgG1, kappa, V domains shown)
VH: B4 VH with F27I, T28D, F29L, S30T, V48I, A49G, L78V
VL: B4 VL
notes: humanised, human IgG1 kappa
B8: 4-H3_H3_L1 (antibody, human IgG1, kappa, V domains shown)
VH: B4 VH with F27I, T28D, F29L, S30T, V48I, A49G, L78V
VL: B4 VL with I2Y, F71Y
notes: humanised, human IgG1 kappa
B9: 4-H3_H4_L0 (antibody, human IgG1, kappa, V domains shown)
VH: B4 VH with F27I, T28D, F29L, S30T, V92T, Y94F
VL: B4 VL
notes: humanised, human IgG1 kappa
B10: 4-H3_H4_L1 (antibody, human IgG1, kappa, V domains shown)
VH: B4 VH with F27I, T28D, F29L, S30T, V92T, Y94F
VL: B4 VL with I2Y, F71Y
notes: humanised, human IgG1 kappa
B11: 4-H3_H7_L0 rep (antibody, human IgG1, kappa, V domains shown)
VH: B4 VH with F27I, T28D, F29L, S30T, V48I, A49G, L78V, V92T, Y94F
VL: B4 VL
notes: humanised, human IgG1 kappa
B12: 4-H3_H7_L1 (antibody, human IgG1, kappa, V domains shown)
VH: B4 VH with F27I, T28D, F29L, S30T, V48I, A49G, L78V, V92T, Y94F
VL: B4 VL with I2Y, F71Y
notes: humanised, human IgG1 kappa
B13: 4-H3_H5_L1 (antibody, human IgG1, kappa)
heavy: not shown
light: B1 light with I2Y, F71Y
notes: humanised, human IgG1 kappa
B14: 4-H3_H5_L0 (antibody, human IgG1, kappa)
heavy: not shown
light: B1 light
notes: humanised, human IgG1 kappa
B15: 4-H3_H2_L1 (antibody, human IgG1, kappa)
heavy: not shown
light: B1 light with I2Y, F71Y
notes: humanised, human IgG1 kappa
B16: 4-H3_H2_L0 (antibody, human IgG1, kappa)
heavy: not shown
light: B1 light
notes: humanised, human IgG1 kappa
B17: 1-G5_H1_L0 (antibody, human IgG1, kappa)
heavy: not shown
light: DIQMTQSPSSLSASVGDRVTITCQASQSVYNNNYLSWYQQKPGKAPKLLIYDASTLASGVPSRFSGSGSGTDFTLTISSLQPEDFATYYCQGSYYSGGWDTAFGGGTKVEIKTVAAPSVFIFPPSDEQLKSGTASVVCLLNNFYPREAKVQWKVDNALQSGNSQESVTEQDSKDSTYSLSSTLTLSKADYEKHKVYACEVTHQGLSSPVTKSFNRGEC
notes: humanised, human IgG1 kappa
B18: 3-H9_H0_VL-par (antibody, human IgG1, kappa, V domains shown)
VH: QVQLVESGGGVVQPGRSLRLSCAASGFTFSNYDMSWVRQAPGKGLEWVASIHAIGITYYANWAEGRFTISRDNSKNTLYLQMNSLRAEDTAVYYCARGLVDLNMWGQGTLVTVSS
VL: AIKMTQTPSSVSVAVGGTVTINCQSSQSVYSNNLLSWYQQKPGQPPKLLIYDASTLESGVPSRFKGSGSGTQFTLTISGVQCEDAATYYCQGSYYSSGWYNTFGGGTEVVVET
notes: also called 3-H9_H0 (hIgG1)
B19: 1-G5_VH-par_VL-par (antibody, human IgG1, kappa)
heavy chain: not shown
light chain: DPVMTQTASSVSAAVGGTVTINCQASQSVYNNNYLSWYQQKPGQPPKLLIYDASTLASGVPSRFSGNGSGTQFTLTISGVQCDDAATYYCQGSYYSGGWDTAFGGGTKVVVKTVAAPSVFIFPPSDEQLKSGTASVVCLLNNFYPREAKVQWKVDNALQSGNSQESVTEQDSKDSTYSLSSTLTLSKADYEKHKVYACEVTHQGLSSPVTKSFNRGEC
notes: also called 1-G5_parental (hIgG1)
B20: 1-G5_VH-par_L1 (antibody, human IgG1, kappa)
heavy chain: not shown
light chain: B17 light with I2P
notes: also called 1-G5_L1 (hIgG1K)
B21: 1-G5_VH-par_L0 (antibody, human IgG1, kappa)
heavy chain: not shown
light chain: B17 light
notes: also called 1-G5_L0 (hIgG1K)
B22: 1-G5_H2_VL-par (antibody, human IgG1, kappa, V domains shown)
VH: QQLVESGGGVVQPGRSLRLSCAASGFSLSSYDMTWVRQAPGKGLEWIGSIHATGITFYANWAKGRFTTSKDSNTVYLQMNSLRAEDTATYFCARGLVDLNMWGQGTLVTVSS
VL: DPVMTQTASSVSAAVGGTVTINCQASQSVYNNNYLSWYQQKPGQPPKLLIYDASTLASGVPSRFSGNGSGTQFTLTISGVQCDDAATYYCQGSYYSGGWDTAFGGGTKVVVKT
notes: also called 1-G5_H2 (hIgG1)
B23: 1-G5_H1_VL-par (antibody, human IgG1, kappa, V domains shown)
VH: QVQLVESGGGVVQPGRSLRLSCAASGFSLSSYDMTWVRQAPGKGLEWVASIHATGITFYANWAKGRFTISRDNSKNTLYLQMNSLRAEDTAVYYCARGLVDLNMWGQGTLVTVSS
VL: B22 VL
notes: also called 1-G5_H1 (hIgG1)
B24: 1-G5_H0_VL-par rep (antibody, human IgG1, kappa, V domains shown)
VH: B18 VH with N31S, S35T, I54T, Y58F, E64K
VL: B22 VL
notes: also called 1-G5_H0 (hIgG1)

target: T1, human full-length VWF (human, UniProt P04275 764-2813); experiment: SPR Biacore T200, antibody captured on Protein A chip, full-length VWF as analyte, single-cycle kinetics
Description: (§1) Antibodies were captured on Protein A sensor chip. The system was purged using running buffer (10 mM HEPES pH 7.4, 300 mM NaCl, 3 mM EDTA, 0.05% P20) and a series S Protein A chip was docked in the Biacore T200. The surface was conditioned with 10 mM glycine-HCl pH 1.5 regeneration solution (3 injections). Each antibody was diluted to ˜0.8 μg/ml in running buffer to capture ˜350 RU on flow cells 2, 3 and 4 (flow cell 1 used as in-line reference cell). Single-cycle kinetic analysis of human full-length VWF binding to antibodies was performed using the following parameters:

Row | Binder | Kd
1 | B1 | < 1000 pM
2 | B2 | < 1000 pM
3 | B3 | < 1000 pM
4 | B4 | < 1000 pM
5 | B5 | < 1000 pM
6 | B6 | < 1000 pM
7 | B7 | < 1000 pM
8 | B8 | < 1000 pM
9 | B9 | < 1000 pM
10 | B10 | < 1000 pM
11 | B11 | < 1000 pM
12 | B12 | < 1000 pM
13 | B13 | < 1000 pM
14 | B14 | < 1000 pM
15 | B15 | < 1000 pM
16 | B16 | < 1000 pM
17 | B17 | < 1000 pM

target: T1, human full-length VWF; experiment: SPR, Biacore T200, antibody captured on Protein A, full-length VWF as analyte, single-cycle kinetics

Row | Binder | Kd | koff | kon
18 | B1 | 0.649 pM | 2.67e-08 s⁻¹ | 41200 M⁻¹ s⁻¹
19 | B2 | 1.73 pM | 1.14e-07 s⁻¹ | 65700 M⁻¹ s⁻¹
20 | B11 | 1.61 pM | 1.73e-07 s⁻¹ | 108000 M⁻¹ s⁻¹
21 | B12 | 5.84 pM | 3.82e-07 s⁻¹ | 65400 M⁻¹ s⁻¹
22 | B13 | 0.575 pM | 5.95e-08 s⁻¹ | 103000 M⁻¹ s⁻¹
23 | B14 | 0.366 pM | 4.93e-08 s⁻¹ | 135000 M⁻¹ s⁻¹

target: T1, human full-length VWF; experiment: as above; remark: another data set of the same source
Description: as §1

Row | Binder | Kd | koff | kon
24 | B18 | 4.09 pM | 3.59e-07 s⁻¹ | 87700 M⁻¹ s⁻¹
25 | B19 | 0.475 pM |  | 
26 | B20 | 12 pM | 1.28e-06 s⁻¹ | 107000 M⁻¹ s⁻¹
27 | B21 | 3.58 pM | 3.8e-07 s⁻¹ | 106000 M⁻¹ s⁻¹
28 | B22 | 14.4 pM | 3.78e-07 s⁻¹ | 26200 M⁻¹ s⁻¹
29 | B23 | 6.77 pM | 1.66e-07 s⁻¹ | 24600 M⁻¹ s⁻¹
30 | B24 | 8.52 pM | 7.2e-07 s⁻¹ | 84500 M⁻¹ s⁻¹

target: T1, human full-length VWF; experiment: as above; remark: another data set of the same source
Description: as §1

Row | Binder | Kd | koff | kon
31 | B3 | 18.7 pM | 2.49e-06 s⁻¹ | 134000 M⁻¹ s⁻¹
32 | B5 | 4.12 pM | 1.52e-07 s⁻¹ | 36900 M⁻¹ s⁻¹
33 | B6 | 13.8 pM | 4.27e-07 s⁻¹ | 31000 M⁻¹ s⁻¹
34 | B7 | 1.92 pM | 1.45e-07 s⁻¹ | 75600 M⁻¹ s⁻¹
35 | B8 | 1.49 pM | 1.72e-07 s⁻¹ | 115000 M⁻¹ s⁻¹
36 | B9 | 19.3 pM | 5.24e-07 s⁻¹ | 27100 M⁻¹ s⁻¹
37 | B10 | 0.14 pM | 6.25e-09 s⁻¹ | 44500 M⁻¹ s⁻¹
38 | B15 | 4.53 pM | 1.36e-07 s⁻¹ | 29900 M⁻¹ s⁻¹
39 | B16 | 27.3 pM | 9.13e-07 s⁻¹ | 33500 M⁻¹ s⁻¹
